# Results: paper PMC4243253
# Test system: N[C@@H](CC(=O)c1ccccc1NC=O)C(=O)O
# Assay: purified protein
# Settings: 0.1 M sodium phosphate, pH 7.4, 20 μM ZnCl2, 25°C
substance,measurement,value
PaKynB-His (Pseudomonas aeruginosa PAO1),Km,980 ± 130 µM
same,Vmax,0.148 µmol/min
same,kcat,114 s⁻¹
same,kcat/Km,116000 M⁻¹ s⁻¹
